Data reported in patent US20260250398A1 (published 2026).

Assays:
Test in all cases: BLI; avid
ANT 99 = molecular target: ANT 99
ANT 98 = molecular target: ANT 98
ANT 80 = molecular target: ANT 80

B1: FZD5 (receptor)
chain: ASKAPVCQEITVPMCRGIGYNLTHMPNQFNHDTQDEAGLEVHQFWPLVEIQCSPDLRFFLCSMYTPICLPDYHKPLPPCRSVCERAKAGCSPLMRQYGFAWPERMSCDRLPVLGRDAEVLCMDYNRSEATTAPPRPFPAKP
Question: What does the source list for B1?
Answer: Kd (ANT 99): 0.4 nM; Kd (ANT 98): 2 nM; Kd (ANT 80): 0.05 nM
